From article PMC3605359, “Expression, purification and biochemical characterization of Schizosaccharomyces pombe Mcm4, 6 and 7” (BMC Biochemistry, 2013)

Assays:
[1] = biological target: the molecule itself; assay: SEC; 4C1 at much lower protein concentration: a center fraction of the 12-mer peak injected again on the same column (hexamer peak, ~250 kDa)
[2] = biological target: the molecule itself; assay: SEC; 4C1 at the higher protein concentration (12-mer peak, ~500 kDa); 250 mM NaCl, 50 mM Tris pH8, 1 mM DTT

B1: 4C1, core fragment of S. pombe Mcm4 (domain or fragment)
chain: ISDEEVEKIQQVSKRDDIYDILSRSLAPSIYEMDDVKKGLLLQLFGGTNKSFHKGASPRYRGDINILMCGDPSTSKSQILKYVHKIAPRGVYTSGKGSSAVGLTAYITRDQDTKQLVLESGALVLSDGGICCIDEFDKMSDATRSILHEVMEQQTVTVAKAGIITTLNARTSILASANPIGSKYNPDLPVTKNIDLPPTLLSRFDLVYLILDRVDETLDRKLANHIVSMYMEDTPEHATDMEVFSVEFLTSYITYARNNINPVISEEAAKELVNAYVGMRKLGEDVRASEKRITATTRQLESMIRLSEAHAKMHLRNVVEVGDVLEAARLIKTAIKDYATD
stoichiometry N [1]: 6
stoichiometry N [2]: 12
